Data taken from paper PMC4622058.

Target: Human FcγRIIIa V158 (human)
Experiment: AlphaScreen or HTRF

Substance	fold difference in binding against IgG1 [fold]	fold decrease in binding against IgG1 [fold]
anti-CD142 mAb variant 2h-AEA (IgG1 with IgG2 lower hinge, K326A/I332E/E333A) (antibody)	< 2	–
anti-CD142 mAb variant 2h-DAA (IgG1 with IgG2 lower hinge, S239D/K326A/E333A) (antibody)	< 2	–
anti-CD142 mAb with human IgG2 constant region (antibody)	–	> 30
